From the Human Domainome abundance scans (Beltran et al. 2025)
± gives the uncertainty stated by the source.

B1: Gamma-crystallin S, residues 96 to 176; numbered along this chain, P22914 (parent)
chain: IQIFEKGDFSGQMYETTEDCPSIMEQFHMREIHSCKVLEGVWIFYELPNYRGRQYLLDKKEYRKPIDWGAASPAVQSFRRI

Variants of: B1
Test: abundance fitness (aPCA) (normalised: wild type 0, dead -1); higher = more abundant; growth selection in yeast, the domain comes from the species named
Conditions: Homo sapiens

Variant	abundance fitness
IQIFEKGDFSGQMYETTEDCPSIMEQFHMREIHSCKVLEGVWIFYELPNYRGRQYLLDKKEYDKPIDWGAASPAVQSFRRI [R63D]	-0.051 ± 0.37
IQIFEKGDFSGQMYETTEDCPSIMEQFHMREIHSCKVLEGVWIFYELPNYRGRQYLLDKKEYLKPIDWGAASPAVQSFRRI [R63L]	0.133 ± 0.13
IQIFEKGDFSGQMYETTEDCPSIMEQFHMREIHSCKVLEGVWIFYELPNYRGRQYLLDKKEYGKPIDWGAASPAVQSFRRI [R63G]	0.092 ± 0.14
IQIFEKGDFSGQMYETTEDCPSIMEQFHMREIHSCKVLEGVWIFYELPNYRGRQYLLDKKEYPKPIDWGAASPAVQSFRRI [R63P]	-0.096 ± 0.46
IQIFEKGDFSGQMYETTEDCPSIMEQFHMREIHSCKVLEGVWIFYELPNYRGRQYLLDKKEYFKPIDWGAASPAVQSFRRI [R63F]	-0.025 ± 0.31
IQIFEKGDFSGQMYETTEDCPSIMEQFHMREIHSCKVLEGVWIFYELPNYRGRQYLLDKKEYKKPIDWGAASPAVQSFRRI [R63K]	-0.093 ± 0.21
IQIFEKGDFSGQMYETTEDCPSIMEQFHMREIHSCKVLEGVWIFYELPNYRGRQYLLDKKEYSKPIDWGAASPAVQSFRRI [R63S]	-0.022 ± 0.16
IQIFEKGDFSGQMYETTEDCPSIMEQFHMREIHSCKVLEGVWIFYELPNYRGRQYLLDKKEYEKPIDWGAASPAVQSFRRI [R63E]	-0.032 ± 0.14
IQIFEKGDFSGQMYETTEDCPSIMEQFHMREIHSCKVLEGVWIFYELPNYRGRQYLLDKKEYTKPIDWGAASPAVQSFRRI [R63T]	-0.102 ± 0.42
IQIFEKGDFSGQMYETTEDCPSIMEQFHMREIHSCKVLEGVWIFYELPNYRGRQYLLDKKEYWKPIDWGAASPAVQSFRRI [R63W]	0.065 ± 0.19
IQIFEKGDFSGQMYETTEDCPSIMEQFHMREIHSCKVLEGVWIFYELPNYRGRQYLLDKKEYYKPIDWGAASPAVQSFRRI [R63Y]	-0.158 ± 0.34
IQIFEKGDFSGQMYETTEDCPSIMEQFHMREIHSCKVLEGVWIFYELPNYRGRQYLLDKKEYVKPIDWGAASPAVQSFRRI [R63V]	-0.118 ± 0.13
IQIFEKGDFSGQMYETTEDCPSIMEQFHMREIHSCKVLEGVWIFYELPNYRGRQYLLDKKEYAKPIDWGAASPAVQSFRRI [R63A]	-0.098 ± 0.23
IQIFEKGDFSGQMYETTEDCPSIMEQFHMREIHSCKVLEGVWIFYELPNYRGRQYLLDKKEYRKPIEWGAASPAVQSFRRI [D67E]	0.069 ± 0.26
IQIFEKGDFSGQMYETTEDCPSIMEQFHMREIHSCKVLEGVWIFYELPNYRGRQYLLDKKEYRKPIAWGAASPAVQSFRRI [D67A]	0.149 ± 0.2
IQIFEKGDFSGQMYETTEDCPSIMEQFHMREIHSCKVLEGVWIFYELPNYRGRQYLLDKKEYRKPIGWGAASPAVQSFRRI [D67G]	-0.098 ± 0.19
IQIFEKGDFSGQMYETTEDCPSIMEQFHMREIHSCKVLEGVWIFYELPNYRGRQYLLDKKEYRKPIIWGAASPAVQSFRRI [D67I]	0.127 ± 0.3
IQIFEKGDFSGQMYETTEDCPSIMEQFHMREIHSCKVLEGVWIFYELPNYRGRQYLLDKKEYRKPIKWGAASPAVQSFRRI [D67K]	-0.127 ± 0.22
IQIFEKGDFSGQMYETTEDCPSIMEQFHMREIHSCKVLEGVWIFYELPNYRGRQYLLDKKEYRKPIFWGAASPAVQSFRRI [D67F]	-0.036 ± 0.31
IQIFEKGDFSGQMYETTEDCPSIMEQFHMREIHSCKVLEGVWIFYELPNYRGRQYLLDKKEYRTPIDWGAASPAVQSFRRI [K64T]	-0.164 ± 0.17
IQIFEKGDFSGQMYETTEDCPSIMEQFHMREIHSCKVLEGVWIFYELPNYRGRQYLLDKKEYRPPIDWGAASPAVQSFRRI [K64P]	-0.215 ± 0.15
IQIFEKGDFSGQMYETTEDCPSIMEQFHMREIHSCKVLEGVWIFYELPNYRGRQYLLDKKEYRWPIDWGAASPAVQSFRRI [K64W]	-0.24 ± 0.2
IQIFEKGDFSGQMYETTEDCPSIMEQFHMREIHSCKVLEGVWIFYELPNYRGRQYLLDKKEYRRPIDWGAASPAVQSFRRI [K64R]	-0.146 ± 0.11

Variant	abundance fitness
IQIFEKGDFSGQMYETTEDCPSIMEQFHMREIHSCKVLEGVWIFYELPNYRGRQYLLDKKEYRIPIDWGAASPAVQSFRRI [K64I]	-0.368 ± 0.35
IQIFEKGDFSGQMYETTEDCPSIMEQFHMREIHSCKVLEGVWIFYELPNYRGRQYLLDKKEYRYPIDWGAASPAVQSFRRI [K64Y]	-0.026 ± 0.29
IQIFEKGDFSGQMYETTEDCPSIMEQFHMREIHSCKVLEGVWIFYELPNYRGRQYLLDKKEYRAPIDWGAASPAVQSFRRI [K64A]	0.034 ± 0.34
IQIFEKGDFSGQMYETTEDCPSIMEQFHMREIHSCKVLEGVWIFYELPNYRGRQYLLDKKEYRGPIDWGAASPAVQSFRRI [K64G]	0.031 ± 0.13
IQIFEKGDFSGQMYETTEDCPSIMEQFHMREIHSCKVLEGVWIFYELPNYRGRQYLLDKKEYRHPIDWGAASPAVQSFRRI [K64H]	-0.372 ± 0.29
IQIFEKGDFSGQMYETTEDCPSIMEQFHMREIHSCKVLEGVWIFYELPNYRGRQYLLDKKEYRLPIDWGAASPAVQSFRRI [K64L]	-0.07 ± 0.12
IQIFEKGDFSGQMYETTEDCPSIMEQFHMREIHSCKVLEGVWIFYELPNYRGRQYLLDKKEYRVPIDWGAASPAVQSFRRI [K64V]	0.002 ± 0.12
IQIFEKGDFSGQMYETTEDCPSIMEQFHMREIHSCKVLEGVWIFYELPNYRGRQYLLDKKEYRCPIDWGAASPAVQSFRRI [K64C]	-0.146 ± 0.16
IQIFEKGDFSGQMYETTEDCPSIMEQFHMREIHSCKVLEGVWIFYELPNYRGRQYLLDKKEYRDPIDWGAASPAVQSFRRI [K64D]	-0.118 ± 0.39
IQIFEKGDFSGQMYETTEDCPSIMEQFHMREIHSCKVLEGVWIFYELPNYRGRQYLLDKKEYRQPIDWGAASPAVQSFRRI [K64Q]	-0.063 ± 0.3
IQIFEKGDFSGQMYETTEDCPSIMEQFHMREIHSCKVLEGVWIFYELPNYRGRQYLLDKKETRKPIDWGAASPAVQSFRRI [Y62T]	-0.174 ± 0.28
IQIFEKGDFSGQMYETTEDCPSIMEQFHMREIHSCKVLEGVWIFYELPNYRGRQYLLDKKEPRKPIDWGAASPAVQSFRRI [Y62P]	0.177 ± 0.29
IQIFEKGDFSGQMYETTEDCPSIMEQFHMREIHSCKVLEGVWIFYELPNYRGRQYLLDKKEVRKPIDWGAASPAVQSFRRI [Y62V]	-0.184 ± 0.16
IQIFEKGDFSGQMYETTEDCPSIMEQFHMREIHSCKVLEGVWIFYELPNYRGRQYLLDKKESRKPIDWGAASPAVQSFRRI [Y62S]	-0.129 ± 0.11
IQIFEKGDFSGQMYETTEDCPSIMEQFHMREIHSCKVLEGVWIFYELPNYRGRQYLLDKKEMRKPIDWGAASPAVQSFRRI [Y62M]	0.116 ± 0.15
IQIFEKGDFSGQMYETTEDCPSIMEQFHMREIHSCKVLEGVWIFYELPNYRGRQYLLDKKEGRKPIDWGAASPAVQSFRRI [Y62G]	-0.075 ± 0.34
IQIFEKGDFSGQMYETTEDCPSIMEQFHMREIHSCKVLEGVWIFYELPNYRGRQYLLDKKENRKPIDWGAASPAVQSFRRI [Y62N]	0.002 ± 0.17
IQIFEKGDFSGQMYETTEDCPSIMEQFHMREIHSCKVLEGVWIFYELPNYRGRQYLLDKKEHRKPIDWGAASPAVQSFRRI [Y62H]	0.117 ± 0.33
IQIFEKGDFSGQMYETTEDCPSIMEQFHMREIHSCKVLEGVWIFYELPNYRGRQYLLDKKEWRKPIDWGAASPAVQSFRRI [Y62W]	0.281 ± 0.36
IQIFEKGDFSGQMYETTEDCPSIMEQFHMREIHSCKVLEGVWIFYELPNYRGRQYLLDKKEYRKPQDWGAASPAVQSFRRI [I66Q]	0.185 ± 0.46
IQIFEKGDFSGQMYETTEDCPSIMEQFHMREIHSCKVLEGVWIFYELPNYRGRQYLLDKKEYRKPEDWGAASPAVQSFRRI [I66E]	0.007 ± 0.16
IQIFEKGDFSGQMYETTEDCPSIMEQFHMREIHSCKVLEGVWIFYELPNYRGRQYLLDKKEYRKPKDWGAASPAVQSFRRI [I66K]	-0.432 ± 0.28
IQIFEKGDFSGQMYETTEDCPSIMEQFHMREIHSCKVLEGVWIFYELPNYRGRQYLLDKKEYRKPWDWGAASPAVQSFRRI [I66W]	0.011 ± 0.19

Variant	abundance fitness
IQIFEKGDFSGQMYETTEDCPSIMEQFHMREIHSCKVLEGVWIFYELPNYRGRQYLLDKKEYRKPRDWGAASPAVQSFRRI [I66R]	0.03 ± 0.2
IQIFEKGDFSGQMYETTEDCPSIMEQFHMREIHSCKVLEGVWIFYELPNYRGRQYLLDKKEYRKPYDWGAASPAVQSFRRI [I66Y]	-0.2 ± 0.36
IQIFEKGDFSGQMYETTEDCPSIMEQFHMREIHSCKVLEGVWIFYELPNYRGRQYLLDKKEYRKPADWGAASPAVQSFRRI [I66A]	-0.032 ± 0.18
IQIFEKGDFSGQMYETTEDCPSIMEQFHMREIHSCKVLEGVWIFYELPNYRGRQYLLDKKEYRKPCDWGAASPAVQSFRRI [I66C]	0.131 ± 0.18
IQIFEKGDFSGQMYETTEDCPSIMEQFHMREIHSCKVLEGVWIFYELPNYRGRQYLLDKKEYRKPTDWGAASPAVQSFRRI [I66T]	-0.047 ± 0.22
IQIFEKGDFSGQMYETTEDCPSIMEQFHMREIHSCKVLEGVWIFYELPNYRGRQYLLDKKEYRKPMDWGAASPAVQSFRRI [I66M]	-0.022 ± 0.45
IQIFEKGDFSGQMYETTEDCPSIMEQFHMREIHSCKVLEGVWIFYELPNYRGRQYLLDKKEYRKPGDWGAASPAVQSFRRI [I66G]	-0.074 ± 0.083
IQIFEKGDFSGQMYETTEDCPSIMEQFHMREIHSCKVLEGVWIFYELPNYRGRQYLLDKKEYRKPSDWGAASPAVQSFRRI [I66S]	0.061 ± 0.46
IQIFEKGDFSGQMYETTEDCPSIMEQFHMREIHSCKVLEGVWIFYELPNYRGRQYLLDKKEYRKPLDWGAASPAVQSFRRI [I66L]	-0.008 ± 0.13
IQIFEKGDFSGQMYETTEDCPSIMEQFHMREIHSCKVLEGVWIFYELPNYRGRQYLLDKKEYRKRIDWGAASPAVQSFRRI [P65R]	0.033 ± 0.11
IQIFEKGDFSGQMYETTEDCPSIMEQFHMREIHSCKVLEGVWIFYELPNYRGRQYLLDKKEYRKLIDWGAASPAVQSFRRI [P65L]	-0.064 ± 0.12
IQIFEKGDFSGQMYETTEDCPSIMEQFHMREIHSCKVLEGVWIFYELPNYRGRQYLLDKKEYRKGIDWGAASPAVQSFRRI [P65G]	-0.009 ± 0.14
IQIFEKGDFSGQMYETTEDCPSIMEQFHMREIHSCKVLEGVWIFYELPNYRGRQYLLDKKEYRKTIDWGAASPAVQSFRRI [P65T]	0.059 ± 0.19
IQIFEKGDFSGQMYETTEDCPSIMEQFHMREIHSCKVLEGVWIFYELPNYRGRQYLLDKKEYRKYIDWGAASPAVQSFRRI [P65Y]	0.199 ± 0.3
IQIFEKGDFSGQMYETTEDCPSIMEQFHMREIHSCKVLEGVWIFYELPNYRGRQYLLDKKEYRKAIDWGAASPAVQSFRRI [P65A]	0.094 ± 0.11
IQIFEKGDFSGQMYETTEDCPSIMEQFHMREIHSCKVLEGVWIFYELPNYRGRQYLLDKKEYRKVIDWGAASPAVQSFRRI [P65V]	0.141 ± 0.083
IQIFEKGDFSGQMYETTEDCPSIMEQFHMREIHSCKVLEGVWIFYELPNYRGRQYLLDKKEYRKNIDWGAASPAVQSFRRI [P65N]	-0.284 ± 0.34
IQIFEKGDFSGQMYETTEDCPSIMEQFHMREIHSCKVLEGVWIFYELPNYRGRQYLLDKKEYRKEIDWGAASPAVQSFRRI [P65E]	-0.004 ± 0.28
IQIFEKGDFSGQMYETTEDCPSIMEQFHMREIHSCKVLEGVWIFYELPNYRGRQYLLDKKEYRKSIDWGAASPAVQSFRRI [P65S]	-0.008 ± 0.2
IQIFEKGDFSGQMYETTEDCPSIMEQFHMREIHSCKVLEGVWIFYELPNYRGRQYLLDKKEYRKQIDWGAASPAVQSFRRI [P65Q]	0.045 ± 0.35
IQIFEKGDFSGQMYETTEDCPSIMEQFHMREIHSCKVLEGVWIFYELPNYRGRQYLLDKKEYRKWIDWGAASPAVQSFRRI [P65W]	-0.024 ± 0.16
IQIFEKGDFSGQMYETTEDCPSIMEQFHMREIHSCKVLEGVWIFYELPNYRGRQYLLDKKEYRKCIDWGAASPAVQSFRRI [P65C]	-0.184 ± 0.2
